Experimental data published in patent publication US8450280B2, “Activation of peptide prodrugs by hK2” (GenbSpera, Inc., priority 1999, dated 2013).
Non-standard residues stand in square brackets, D forms with d. No end group written: not given here.

Columns and labels:
hK2 = target: T1, hK2 (Homo sapiens, UniProt P20151); assay: Hydrolysis of hK2 substrates by hK2; format: biochemical; settings: hK2 1 μg/ml, 50 mM Tris, 0.1 M NaCl, pH 7.8
T1 construct: made in house
Protocol: (§1) Hydrolyses of particular hK2 substrates were carried out at a hK2 concentrations of 1 μg/ml in 50 mM Tris buffer, with 0.1 M NaCl, at pH 7.8. Serum hydrolysis measurements were carried out in 50% fresh human serum in 50 mM Tris buffer, with 0.1 M NaCl, at pH 7.8. The single letter amino acid code was used to designate the peptide sequences used for Table 4. The units FU are arbitrary fluorescence units. The entries “U.D.” were for measurements of less than 0.01 FU/hour.

[1] = Serum hydrolysis of hK2 substrates; format: in vitro ADME; settings: 50% fresh human serum in 50 mM Tris, 0.1 M NaCl, pH 7.8
Protocol: as §1

T1 sequence (P20151 25-261): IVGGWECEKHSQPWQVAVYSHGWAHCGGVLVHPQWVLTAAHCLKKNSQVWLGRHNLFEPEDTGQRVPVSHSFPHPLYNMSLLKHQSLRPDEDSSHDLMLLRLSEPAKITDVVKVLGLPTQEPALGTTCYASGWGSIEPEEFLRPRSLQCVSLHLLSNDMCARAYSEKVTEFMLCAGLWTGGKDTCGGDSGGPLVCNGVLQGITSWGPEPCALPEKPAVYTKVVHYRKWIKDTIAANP

Substance | hK2 Hydrolysis Rate (hK2; Table 4) [FU/hr/m] | Serum Hydrolysis Rate ([1]; Table 4) | hK2 Hydrolysis Rate (hK2; Table 5) [FU/hr/m] | Serum Hydrolysis Rate ([1]; Table 5)
SEQ ID NO: 83: hK2 substrate peptide, single letter sequence P7-P′1 (GPLILSRL; listed as Homo sapiens) | 118.21 | 0.07 FU/hr | – | –
SEQ ID NO: 112: hK2 substrate peptide, single letter sequence P6-P′1 (GGKARKL; listed as Homo sapiens) | – | – | 1602.4 | UD (The entries “U.D.” were for measurements of less than 0.01 FU/hour)
SEQ ID NO: 85: hK2 substrate peptide, single letter sequence P7-P′1 (GKDVSGHL; listed as Homo sapiens) | 67.55 | 0.05 FU/hr | – | –
SEQ ID NO: 88: hK2 substrate peptide, single letter sequence P7-P′1 (GPAHQDRL; listed as Homo sapiens) | 75.34 | 0.06 FU/hr | – | –
SEQ ID NO: 98: hK2 substrate peptide, single letter sequence P6-P′1 (GGAKRRL; listed as Homo sapiens) | – | – | 2773.0 | 0.02 FU/hr
SEQ ID NO: 72: hK2 substrate peptide, single letter sequence P7-P′1 (GKDVSRRL; listed as Homo sapiens) | 2316.12 | 0.08 FU/hr | – | –
SEQ ID NO: 114: hK2 substrate peptide, single letter sequence P6-P′1 (GGKAHRL; listed as Homo sapiens) | – | – | 1287.4 | 0.10 FU/hr
SEQ ID NO: 99: hK2 substrate peptide, single letter sequence P7-P′1 (GHEQKRRS; listed as Homo sapiens) | – | – | 2638.5 | UD (The entries “U.D.” were for measurements of less than 0.01 FU/hour)
SEQ ID NO: 68: hK2 substrate peptide, single letter sequence P7-P′1 (GGGKAHRL; listed as Homo sapiens) | 4100.94 | 0.09 FU/hr | – | –
SEQ ID NO: 106: hK2 substrate peptide, single letter sequence P6-P′1 (GGKQRRL; listed as Homo sapiens) | – | – | 2171.2 | 0.02 FU/hr
SEQ ID NO: 119: hK2 substrate peptide, single letter sequence P6-P′1, dR at P2 (GGKA[dR]RL; listed as Homo sapiens) | – | – | 494.4 | 0.06 FU/hr
SEQ ID NO: 81: hK2 substrate peptide, single letter sequence P7-P′1 (GSKGHFHL; listed as Homo sapiens) | 171.47 | 0.10 FU/hr | – | –
SEQ ID NO: 116: hK2 substrate peptide, single letter sequence P6-P′1 (GGKARQL; listed as Homo sapiens) | – | – | 1021.9 | 0.13 FU/hr
SEQ ID NO: 66: hK2 substrate peptide, single letter sequence P7-P′1 (GHEQKRRL; listed as Homo sapiens) | 5966.31 | 0.17 FU/hr | 3366.5 | UD (The entries “U.D.” were for measurements of less than 0.01 FU/hour)
SEQ ID NO: 70: hK2 substrate peptide, single letter sequence P7-P′1 (GSKGHFRL; listed as Homo sapiens) | 3029.27 | 0.04 FU/hr | – | –
SEQ ID NO: 101: hK2 substrate peptide, single letter sequence P6-P′1 (GGHKRRL; listed as Homo sapiens) | – | – | 2428.4 | UD (The entries “U.D.” were for measurements of less than 0.01 FU/hour)
SEQ ID NO: 74: hK2 substrate peptide, single letter sequence P7-P′1 (GSYPSRRL; listed as Homo sapiens) | 2060.21 | 0.09 FU/hr | – | –
SEQ ID NO: 75: hK2 substrate peptide, single letter sequence P7-P′1 (GSYPSSRL; listed as Homo sapiens) | 1456.18 | 0.06 FU/hr | – | –
SEQ ID NO: 105: hK2 substrate peptide, single letter sequence P6-P′1 (GGKARRL; listed as Homo sapiens) | – | – | 2171.2 | UD (The entries “U.D.” were for measurements of less than 0.01 FU/hour)

Substance | hK2 Hydrolysis Rate (hK2; Table 4) [FU/hr/m] | Serum Hydrolysis Rate ([1]; Table 4) | hK2 Hydrolysis Rate (hK2; Table 5) [FU/hr/m] | Serum Hydrolysis Rate ([1]; Table 5)
SEQ ID NO: 104: hK2 substrate peptide, single letter sequence P6-P′1 (GGKAQRL; listed as Homo sapiens) | – | – | 2233.7 | 0.04 FU/hr
SEQ ID NO: 117: hK2 substrate peptide, single letter sequence P6-P′1 (GGKARHL; listed as Homo sapiens) | – | – | 939.3 | UD (The entries “U.D.” were for measurements of less than 0.01 FU/hour)
SEQ ID NO: 91: hK2 substrate peptide, single letter sequence P7-P′1 (GSYPSSHL; listed as Homo sapiens) | 24.68 | UD (The entries “U.D.” were for measurements of less than 0.01 FU/hour) | – | –
SEQ ID NO: 97: hK2 substrate peptide, single letter sequence P7-P′1 (GHEQKRRA; listed as Homo sapiens) | – | – | 3051.5 | 0.06 FU/hr
SEQ ID NO: 79: hK2 substrate peptide, single letter sequence P7-P′1 (GKDVSGRL; listed as Homo sapiens) | 242.91 | 0.05 FU/hr | – | –
SEQ ID NO: 78: hK2 substrate peptide, single letter sequence P7-P′1 (GSYEERRL; listed as Homo sapiens) | 324.75 | 0.04 FU/hr | – | –
SEQ ID NO: 115: hK2 substrate peptide, single letter sequence P6-P′1 (GGKANRL; listed as Homo sapiens) | – | – | 1113.9 | 0.01 FU/hr
SEQ ID NO: 121: hK2 substrate peptide, single letter sequence P6-P′1 (GGKAHKL; listed as Homo sapiens) | – | – | 73.2 | UD (The entries “U.D.” were for measurements of less than 0.01 FU/hour)
SEQ ID NO: 96: hK2 substrate peptide, single letter sequence P6-P′1 (GGQKRRL; listed as Homo sapiens) | – | – | 3267.4 | 0.02 FU/hr
SEQ ID NO: 86: hK2 substrate peptide, single letter sequence P7-P′1 (GGGKAHHL; listed as Homo sapiens) | 70.15 | 0.05 FU/hr | – | –
SEQ ID NO: 103: hK2 substrate peptide, single letter sequence P7-P′1 (GAEQKRRL; listed as Homo sapiens) | – | – | 2325.8 | 0.10 FU/hr
SEQ ID NO: 118: hK2 substrate peptide, single letter sequence P6-P′1 (GGKARNL; listed as Homo sapiens) | – | – | 828.4 | 0.25 FU/hr
SEQ ID NO: 89: hK2 substrate peptide, single letter sequence P7-P′1 (GHEQKGHL; listed as Homo sapiens) | 1.30 | UD (The entries “U.D.” were for measurements of less than 0.01 FU/hour) | – | –
SEQ ID NO: 80: hK2 substrate peptide, single letter sequence P7-P′1 (GSNTEKRL; listed as Homo sapiens) | 255.90 | 0.13 FU/hr | – | –
SEQ ID NO: 123: hK2 substrate peptide, single letter sequence P6-P′1, dR at P2 and P1 (GGKA[dR][dR]L; listed as Homo sapiens) | – | – | 16.5 | UD (The entries “U.D.” were for measurements of less than 0.01 FU/hour)
SEQ ID NO: 92: hK2 substrate peptide, single letter sequence P7-P′1 (GSQNQVHL; listed as Homo sapiens) | 32.48 | 0.03 FU/hr | – | –
SEQ ID NO: 110: hK2 substrate peptide, single letter sequence P7-P′1, dL at P′1 (GHEQKRR[dL]; listed as Homo sapiens) | – | – | 1690.9 | 0.15 FU/hr
SEQ ID NO: 107: hK2 substrate peptide, single letter sequence P6-P′1 (GGKHRRL; listed as Homo sapiens) | – | – | 2079.2 | UD (The entries “U.D.” were for measurements of less than 0.01 FU/hour)
